Laboratory results as given in US10800847.
Each block holds one substance with its values, some of them ahead of it.

How the values were obtained:
HLA-B*1401 (B64) (human) [1] = assay: Luminex iBeads (#6), IVIg diluted 1:8
[2] = molecular target: HLA-A*7401 (A74) single antigen on Luminex beads (human); assay: Luminex single antigen bead assay, regular beads (#7), IVIg 1:4
[3] = molecular target: HLA-A*6901 (A69) single antigen on Luminex beads (human); assay: as above
[4] = molecular target: HLA-Cw*0602 (Cw6) (human); assay: Luminex, iBeads (#6), 1:4
[5] = molecular target: Albumin (negative control beads) (human or bovine); assay: Luminex, iBeads (#6), 1:4
[6] = molecular target: HLA-Cw*0304 (Cw10) (human); assay: Luminex, iBeads (#6), 1:4
[7] = molecular target: HLA-Cw*0302 (Cw10) (human); assay: Luminex, iBeads (#6), 1:4
[8] = molecular target: HLA-Cw*0202 (Cw2) (human); assay: Luminex, iBeads (#6), 1:4
[9] = molecular target: HLA-Cw*1502 (Cw15) (human); assay: Luminex, iBeads (#6), 1:4
[10] = molecular target: HLA-Cw*0401 (Cw4) (human); assay: Luminex, iBeads (#6), 1:4
[11] = molecular target: HLA-Cw*0303 (Cw9) (human); assay: Luminex, iBeads (#6), 1:4
[12] = molecular target: HLA-Cw*1601 (Cw16) (human); assay: Luminex, iBeads (#6), 1:4
[13] = molecular target: HLA-Cw*0102 (Cw1) (human); assay: Luminex, iBeads (#6), 1:4
[14] = molecular target: HLA-Cw*1701 (Cw17) (human); assay: Luminex, iBeads (#6), 1:4
[15] = molecular target: HLA-Cw*0702 (Cw7) (human); assay: Luminex, iBeads (#6), 1:4
[16] = molecular target: HLA-Cw*0501 (Cw5) (human); assay: Luminex, iBeads (#6), 1:4
[17] = molecular target: HLA-Cw*1203 (Cw12) (human); assay: Luminex, iBeads (#6), 1:4
HLA-B*1301 (B13) (human) = assay: iBead MFI against regular-bead MFI, IVIg diluted 1:4
HLA-B*1402 (B65) (human) = assay: as above
HLA-B*1511 (B75) (human) = assay: as above
HLA-B*1510 (B71) (human) = assay: as above
HLA-B*1401 (B64) (human) [18] = assay: as above
HLA-B*1513 (B77) (human) = assay: as above
HLA-B*1503 (B72) (human) = assay: as above
HLA-B*1512 (B76) (human) = assay: as above
HLA-B*1302 (B13) (human) = assay: as above
HLA-B*0702 (B7) (human) = assay: as above
HLA-B*0801 (B8) (human) = assay: as above
HLA-B*1516 (B63) (human) = assay: as above
[19] = molecular target: HLA-Cw*0801 (Cw8) (human); assay: Luminex, iBead vs regular bead MFI, 1:4
[20] = molecular target: HLA-Cw*0602 (Cw6) (human); assay: Luminex, iBead vs regular bead MFI, 1:4
[21] = molecular target: HLA-Cw*0304 (Cw10) (human); assay: Luminex, iBead vs regular bead MFI, 1:4
[22] = molecular target: HLA-Cw*0302 (Cw10) (human); assay: Luminex, iBead vs regular bead MFI, 1:4
[23] = molecular target: HLA-Cw*1502 (Cw15) (human); assay: Luminex, iBead vs regular bead MFI, 1:4
[24] = molecular target: HLA-Cw*0401 (Cw4) (human); assay: Luminex, iBead vs regular bead MFI, 1:4
[25] = molecular target: HLA-Cw*0303 (Cw9) (human); assay: Luminex, iBead vs regular bead MFI, 1:4
[26] = molecular target: HLA-Cw*0102 (Cw1) (human); assay: Luminex, iBead vs regular bead MFI, 1:4
[27] = molecular target: HLA-Cw*1701 (Cw17) (human); assay: Luminex, iBead vs regular bead MFI, 1:4
[28] = molecular target: HLA-Cw*0702 (Cw7) (human); assay: Luminex, iBead vs regular bead MFI, 1:4
[29] = molecular target: HLA-Cw*1402 (Cw14) (human); assay: Luminex, iBead vs regular bead MFI, 1:4
[30] = molecular target: HLA-Cw*0501 (Cw5) (human); assay: Luminex, iBead vs regular bead MFI, 1:4
[31] = molecular target: HLA-Cw*1203 (Cw12) (human); assay: Luminex, iBead vs regular bead MFI, 1:4
[32] = molecular target: HLA-A*0301 (A3) on single antigen beads (human) (UniProt P04439); assay: Luminex single antigen beads, regular beads (#7), 1:8
[33] = molecular target: Albumin on negative control beads (serum albumin, HSA/BSA) (human or bovine); assay: as above
[34] = molecular target: HLA-B*4002 (B61) single antigen on Luminex beads (human); assay: Luminex single antigen, regular beads (#7), IVIg 1:8
[35] = molecular target: HLA-B*4001 (B60) single antigen on Luminex beads (human); assay: as above
[36] = molecular target: HLA-B*2705 (B27) single antigen on Luminex beads (human); assay: as above

MFI (HLA-B*1401 (B64) (human) [1]): 269 MFI
Substance: IVIg GamaSTAN S/D (Talecris Biotherapeutics, USA) (antibody)

MFI [2]: 0 MFI
MFI [3]: 470 MFI
MFI [4]: 627 MFI
MFI [5]: 667 MFI
MFI [6]: 520 MFI
MFI [7]: 522 MFI
MFI [8]: 719 MFI
MFI [9]: 458 MFI
MFI [10]: 601 MFI
MFI [11]: 500 MFI
MFI [12]: 613 MFI
MFI [13]: 511 MFI
MFI [14]: 1050 MFI
MFI [15]: 746 MFI
MFI [16]: 710 MFI
MFI [17]: 636 MFI
Difference % (iBead vs regular bead) (HLA-B*1301 (B13) (human)): -4%
Difference % (iBead vs regular bead) (HLA-B*1402 (B65) (human)): -36%
Difference % (iBead vs regular bead) (HLA-B*1511 (B75) (human)): -13%
Difference % (iBead vs regular bead) (HLA-B*1510 (B71) (human)): 13%
Difference % (iBead vs regular bead) (HLA-B*1401 (B64) (human) [18]): -67%
Difference % (iBead vs regular bead) (HLA-B*1513 (B77) (human)): -19%
Difference % (iBead vs regular bead) (HLA-B*1503 (B72) (human)): 0%
Difference % (iBead vs regular bead) (HLA-B*1512 (B76) (human)): 199%
Difference % (iBead vs regular bead) (HLA-B*1302 (B13) (human)): 5%
Difference % (iBead vs regular bead) (HLA-B*0702 (B7) (human)): 41%
Difference % (iBead vs regular bead) (HLA-B*0801 (B8) (human)): 18%
Difference % (iBead vs regular bead) (HLA-B*1516 (B63) (human)): -5%
Difference % [19]: -42%
Difference % [20]: -60%
Difference % [21]: -38%
Difference % [22]: -49%
Difference % [23]: -41%
Difference % [24]: -62%
Difference % [25]: -29%
Difference % [26]: -49%
Difference % [27]: -29%
Difference % [28]: -62%
Difference % [29]: -59%
Difference % [30]: -42%
Difference % [31]: -35%
Substance: IVIg Sandoglobulin (Novartis, Basel, Switzerland) (antibody)

MFI [32]: 515 MFI
MFI [33]: 2340 MFI
MFI [34]: 271 MFI
MFI [35]: 987 MFI
MFI [36]: 154 MFI
Substance: Octagam (IVIg, Octapharma, Lachen, Switzerland) (antibody)
